# Article PMC9438502, “Complementarity of neutron, XFEL and synchrotron crystallography for defining the structures of metalloenzymes at room temperature” (IUCrJ, 2022)
# B1: dehaloperoxidase B (enzyme, Amphitrite ornata)
# chain: MGFKQDIATLRGDLRTYAQDIFLAFLNKYPDEKRNFKNYVGKSDQELKSMAKFGDHTEKVFNLMMEVADRATDCVPLASDASTLVQMKQHSGLTTGNFEKLFVALVEYMRASGQSFDSQSWDRFGKNLVSALSSAGMK
# notes: dehaloperoxidase B (DHP-B), heme-containing coelomic hemoglobin of the marine annelid Amphitrite ornata; 274 protein residues modelled for the two protomers of the asymmetric unit; Heme protein, ferric or oxyferrous; The crystal for NX and NX-Xray was perdeuterated (97% deuteration level); the other crystals were protiated; also called DHP-B; dehaloperoxidase isoenzyme B; source: E. coli …
# Target: the molecule itself
# Assay: crystal structure; room-temperature crystals of DHP-B, space group P2(1)2(1)2(1); neutron, in-house X-ray, SFX, SSX and serial Laue data; two protomers (A, B) in the asymmetric unit
protein,measurement,value
B1,binding result,binds
